B1: ANKRD17 (parent)
chain: EMVRFLLEAGADQEHKTDEMHTAL

Variants of: B1
Experiment: protein stability index of a GFP-peptide fusion (GPS, HEK-293T) (PSI 1-6); higher = more stable
Conditions: c terminus: a fixed tail appended
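Note: lentivirally expressed fusions sorted by FACS into six bins by GFP to DsRed ratio, PSI derived from sequencing read proportions per bin multiplied by bin number.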

Variant	protein stability index
ETVRFLLEAGADQEHKTDEMHTAL	4.4
EDVRFLLEAGADQEHKTDEMHTAL	5.29
EGVRFLLEAGADQEHKTDEMHTAL	4.74
EEVRFLLEAGADQEHKTDEMHTAL	4.73
ELVRFLLEAGADQEHKTDEMHTAL	1.95
EMVRFLLEAGADQEHKTDEMSTAL	3.4
EMVRFLLEAGADQEHKTDEMWTAL	1.92
EMVRFLLEAGADQEHKTDEMRTAL	3.36
EMVRFLLEAGADQEHKTDEMITAL	2.55
EMVRFLLEAGADQEHKTDEMKTAL	3.11
EMVRFLLEAGADQEHKTDEMTTAL	2.81
EMVRFLLEAGADQEHKTDEMMTAL	3.25
EMVRFLLEAGADQEHKTDEMETAL	2.89
EMVRFLLEAGADQEHKTDEKHTAL	2.94
EMVRFLLEAGADQEHKTDEHHTAL	2.79
EMVRFLLEAGADQEHKTDEWHTAL	2.82
EMVRFLLEAGADQEHKTDEGHTAL	3.12
EMVRFLLEAGADQEHKTDEQHTAL	3
EMVRFLLEAGADQEHKTDEAHTAL	3.04
EMVRFLLEAGADQEHKTDENHTAL	3.59
EMVRFLLEAGADQEHKTDETHTAL	3.15
EMVRFLLEAGADQQHKTDEMHTAL	2.46
EMVRFLLEAGADQMHKTDEMHTAL	2.72
EMVRFLLEAGADQTHKTDEMHTAL	2.04

Variant	protein stability index
EMVRFLLEAGADQNHKTDEMHTAL	1.95
EMVRFLLEAGADQSHKTDEMHTAL	2.15
EMVRFLLEAGADQFHKTDEMHTAL	1.9
EMVRFLLEAGADQERKTDEMHTAL	2.44
EMVRFLLEAGADQEKKTDEMHTAL	2.92
EMVRFLLEAGADQEYKTDEMHTAL	1.97
EMVRFLLEAGADQEFKTDEMHTAL	1.94
EMVRFLLEAGADQEWKTDEMHTAL	1.72
EMVRFLLEAGADQEGKTDEMHTAL	2.73
EMVRFLLEAGADQEDKTDEMHTAL	3.33
EMVRFLLEAGADQENKTDEMHTAL	3.21
EMVRFLLEAGADQEAKTDEMHTAL	2.76
KMVRFLLEAGADQEHKTDEMHTAL	2.48
DMVRFLLEAGADQEHKTDEMHTAL	2.82
LMVRFLLEAGADQEHKTDEMHTAL	2.16
WMVRFLLEAGADQEHKTDEMHTAL	2.05
TMVRFLLEAGADQEHKTDEMHTAL	2.73
NMVRFLLEAGADQEHKTDEMHTAL	3.37
GMVRFLLEAGADQEHKTDEMHTAL	3.41
RMVRFLLEAGADQEHKTDEMHTAL	2.81
EMVRFLLEAGADQEHKTDEMHCAL	2.2
EMVRFLLEAGADQEHKTDEMHYAL	1.93
EMVRFLLEAGADQEHKTDEMHMAL	2.15
EMVRFLLEAGADQEHKTDEMHRAL	2.5

Variant	protein stability index
EMVRFLLEAGADQEHKTDEMHNAL	2.86
EMVRFLLEAGADQEHKTDEMHQAL	2.78
EMVRFLLEAGADQEHKTDEMHIAL	1.93
EMVRFLLEAGADQEHKTDEMHSAL	2.98
EMVRFLLEAGADQEHWTDEMHTAL	1.88
EMVRFLLEAGADQEHGTDEMHTAL	2.56
EMVRFLLEAGADQEHATDEMHTAL	3.16
EMVRFLLEAGADQEHTTDEMHTAL	3.44
EMVRFLLEAGADQEHVTDEMHTAL	3.18
EMVRFLLEAGADQEHPTDEMHTAL	2.45
EMVNFLLEAGADQEHKTDEMHTAL	3.22
EMVMFLLEAGADQEHKTDEMHTAL	2.46
EMVVFLLEAGADQEHKTDEMHTAL	2.65
EMVKFLLEAGADQEHKTDEMHTAL	3.22
EMVDFLLEAGADQEHKTDEMHTAL	4.17
EMVIFLLEAGADQEHKTDEMHTAL	2.19
EMVSFLLEAGADQEHKTDEMHTAL	3.64
EMVWFLLEAGADQEHKTDEMHTAL	2.08
EMVHFLLEAGADQEHKTDEMHTAL	3.2
EMVCFLLEAGADQEHKTDEMHTAL	3.14
EMVRFLLEAWADQEHKTDEMHTAL	2.2
EMVRFLLEASADQEHKTDEMHTAL	2.03
EMVRFLLEAEADQEHKTDEMHTAL	3.32
EMVRFLLEAPADQEHKTDEMHTAL	3.73

Variant	protein stability index
EMVRFLLEAHADQEHKTDEMHTAL	2.57
EMVRFLLEAGATQEHKTDEMHTAL	2.21
EMVRFLLEAGAGQEHKTDEMHTAL	1.96
EMVRFLLEAGAWQEHKTDEMHTAL	1.43
EMVRFLLEAGAIQEHKTDEMHTAL	1.62
EMVRFLLEAGARQEHKTDEMHTAL	2.05
EMVRFLLEAGAKQEHKTDEMHTAL	2.69
EMVRFLLEAGAMQEHKTDEMHTAL	2.07
EMVRFLLEAGASQEHKTDEMHTAL	2.29
EMVRFLLEAGAAQEHKTDEMHTAL	2.38
EMVRFLLKAGADQEHKTDEMHTAL	2.71
EMVRFLLIAGADQEHKTDEMHTAL	2.07
EMVRFLLDAGADQEHKTDEMHTAL	2.72
EMVRFLLMAGADQEHKTDEMHTAL	2.62
EMVRFLLEAGYDQEHKTDEMHTAL	2.01
EMVRFLLEAGNDQEHKTDEMHTAL	3.29
EMVRFLLEAGFDQEHKTDEMHTAL	1.83
EMVRFLLEAGLDQEHKTDEMHTAL	2.04
EMVRFLLEAGDDQEHKTDEMHTAL	3.21
EMVRFLLEHGADQEHKTDEMHTAL	2.58
EMVRFLLEGGADQEHKTDEMHTAL	2.8
EMVRFLLEYGADQEHKTDEMHTAL	2.54
